Source: doi:10.1101/2023.01.25.525508

Experiments:
[1] = molecular target: T1, TIA1 full-length (fl TIA1) (Mus musculus, UniProt P52912 1-386); test: ITC
T1 sequence: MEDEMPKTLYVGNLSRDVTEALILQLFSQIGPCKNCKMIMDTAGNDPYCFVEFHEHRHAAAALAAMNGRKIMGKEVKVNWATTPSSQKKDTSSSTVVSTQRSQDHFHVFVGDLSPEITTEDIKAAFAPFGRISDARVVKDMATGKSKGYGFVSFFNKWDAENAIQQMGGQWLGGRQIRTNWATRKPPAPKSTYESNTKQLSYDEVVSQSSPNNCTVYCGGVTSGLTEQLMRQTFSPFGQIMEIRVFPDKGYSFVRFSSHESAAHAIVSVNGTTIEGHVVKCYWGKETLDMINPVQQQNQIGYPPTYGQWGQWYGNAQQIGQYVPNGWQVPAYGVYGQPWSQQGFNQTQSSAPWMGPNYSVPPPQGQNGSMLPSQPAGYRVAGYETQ

[2] = molecular target: T1, TIA1 full-length (fl TIA1); test: solid-state NMR

## TTTTTACTCC (ssDNA) [TC1]
[1]
  Kd: 263 ± 60 nM

## TTTTTACTCCAAAAAAAATTTTTACTCCAAAAAAAATTTTTACTCC (ssDNA) [(TC1-A8)2-TC1]
[2]
  binding result: binds
